Reference: US20080020978A1 (Amgen, published 2008)
Square brackets hold non-standard residues; d marks the D form. Ends that are not written are not given here. * marks the point of attachment. Bn2 = Nα,Nα-dibenzyl on N-terminal residue; 1Nal = N[C@@H](Cc1cccc2ccccc12)C(=O)O; Cha = N[C@@H](CC1CCCCC1)C(=O)O; Phg = N[C@H](C(=O)O)c1ccccc1; Bn = c1ccc(C*)cc1; Acm = CC(=O)NC*

target: T1, CGRP1 receptor (CRLR/RAMP1 complex) of human neuroblastoma SK-N-MC cells (human, UniProt Q16602 23-461; O60894 27-148); experiment: 125I-hαCGRP competition, SK-N-MC membranes
T1 construct: whole, on cells
Method: CGRP₁ binding experiments. […] The plates were incubated at room temperature for 2 hour with shaking at 60 rpm, then the contents of each well were filtered over 0.5% polyethyleneimine (PEI)-treated (at least one hour) GF/C 96-well filter plates. The GF/C filter plates were washed 6 times with ice-cold 50 mM Tris, pH 7.5 and dried in an oven at 55 C for 1 hour. The bottoms of the GF/C plates were then sealed, and 40 μl Microscint™ 20 was added to each well, then the tops of the GF/C plates were sealed with TopSeal™-A, a press-on adhesive sealing film, and the GF/C plates were counted with TopCount NXT (Packard). The data were analyzed by using ActivityBase (IDBS) or Prizm (GraphPad) software.

T1 sequence (Q16602 23-461, chain 1 of 2): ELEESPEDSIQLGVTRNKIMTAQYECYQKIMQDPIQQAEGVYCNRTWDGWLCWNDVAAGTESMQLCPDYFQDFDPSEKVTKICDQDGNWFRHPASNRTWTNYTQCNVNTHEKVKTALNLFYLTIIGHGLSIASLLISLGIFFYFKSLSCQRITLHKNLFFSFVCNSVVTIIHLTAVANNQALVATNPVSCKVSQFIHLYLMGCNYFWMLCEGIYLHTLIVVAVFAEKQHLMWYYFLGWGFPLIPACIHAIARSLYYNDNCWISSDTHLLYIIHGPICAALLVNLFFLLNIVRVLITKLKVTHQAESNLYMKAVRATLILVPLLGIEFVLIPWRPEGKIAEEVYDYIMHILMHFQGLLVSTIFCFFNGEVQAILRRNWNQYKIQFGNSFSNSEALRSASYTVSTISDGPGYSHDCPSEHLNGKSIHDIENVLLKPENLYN
T1 sequence (O60894 27-148, chain 2 of 2): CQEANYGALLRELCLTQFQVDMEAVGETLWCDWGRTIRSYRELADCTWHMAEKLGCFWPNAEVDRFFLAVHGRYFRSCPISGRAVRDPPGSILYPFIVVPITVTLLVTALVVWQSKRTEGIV

Binder | Ki [nM]
Bn-VTHRLAGLLSRSGGVVKNNFVPTDVGPFAF-NH2 (SMILES CC(C)C[C@H](NC(=O)CNC(=O)[C@H](C)NC(=O)[C@H](CC(C)C)NC(=O)[C@H](CCCNC(=N)N)NC(=O)[C@H](Cc1c[nH]cn1)NC(=O)[C@@H](NC(=O)[C@@H](NCc1ccccc1)C(C)C)[C@@H](C)O)C(=O)N[C@@H](CC(C)C)C(=O)N[C@@H](CO)C(=O)N[C@@H](CCCNC(=N)N)C(=O)N[C@@H](CO)C(=O)NCC(=O)NCC(=O)N[C@H](C(=O)N[C@H](C(=O)N[C@@H](CCCCN)C(=O)N[C@@H](CC(N)=O)C(=O)N[C@@H](CC(N)=O)C(=O)N[C@@H](Cc1ccccc1)C(=O)N[C@H](C(=O)N1CCC[C@H]1C(=O)N[C@H](C(=O)N[C@@H](CC(=O)O)C(=O)N[C@H](C(=O)NCC(=O)N1CCC[C@H]1C(=O)N[C@@H](Cc1ccccc1)C(=O)N[C@@H](C)C(=O)N[C@@H](Cc1ccccc1)C(N)=O)C(C)C)[C@@H](C)O)C(C)C)C(C)C)C(C)C) [SEQ ID NO 700] | 0.22
AC(Acm)DTATSVTHRLAGLLSRSGGVVKNNFVPTNVGSKAF-NH2 (N-terminus assumed; SMILES CC(=O)NCSC[C@H](NC(=O)[C@H](C)N)C(=O)N[C@@H](CC(=O)O)C(=O)N[C@H](C(=O)N[C@@H](C)C(=O)N[C@H](C(=O)N[C@@H](CO)C(=O)N[C@H](C(=O)N[C@H](C(=O)N[C@@H](Cc1c[nH]cn1)C(=O)N[C@@H](CCCNC(=N)N)C(=O)N[C@@H](CC(C)C)C(=O)N[C@@H](C)C(=O)NCC(=O)N[C@@H](CC(C)C)C(=O)N[C@@H](CC(C)C)C(=O)N[C@@H](CO)C(=O)N[C@@H](CCCNC(=N)N)C(=O)N[C@@H](CO)C(=O)NCC(=O)NCC(=O)N[C@H](C(=O)N[C@H](C(=O)N[C@@H](CCCCN)C(=O)N[C@@H](CC(N)=O)C(=O)N[C@@H](CC(N)=O)C(=O)N[C@@H](Cc1ccccc1)C(=O)N[C@H](C(=O)N1CCC[C@H]1C(=O)N[C@H](C(=O)N[C@@H](CC(N)=O)C(=O)N[C@H](C(=O)NCC(=O)N[C@@H](CO)C(=O)N[C@@H](CCCCN)C(=O)N[C@@H](C)C(=O)N[C@@H](Cc1ccccc1)C(N)=O)C(C)C)[C@@H](C)O)C(C)C)C(C)C)C(C)C)[C@@H](C)O)C(C)C)[C@@H](C)O)[C@@H](C)O) [SEQ ID NO 708] | 24
WVTHRLAGLLSRSGGVVKC(MeO‑PEG 5 kDa)NFVPTDVGPFAF-NH2 [SEQ ID NO 696] | 0.21
CGGGGGGGFVPTDVGPFAF-NH2 [SEQ ID NO 721] | 7.34
Bn2-VTHRLAGLLSRSGGVVKNNFVPTDVGPFAF-NH2 [SEQ ID NO 702] | 0.23
C(MeO‑PEG 5 kDa)GGGGGGGVTHRLAGLLSRSGGVVKNNFVPTNVGSKAF-NH2 [SEQ ID NO 690] | 3070
CGGGGGGGVTHRLAGLLSRSGGVVKNNFVPTDVGPFAF-NH2 (not fully specified (residue 1)) [SEQ ID NO 692] | 20.8
WVTHXLAGLLSXSGGVVXKNFVPTDVGPFAF (Ac-WVTH[Cit]LAGLLS[Cit]SGGVV[hArg]K(20 KPEGald)NFVPTDVGPFAF-NH2) [SEQ ID NO 171] | 1.27
WVTHXLAGLLSXSGGVVXKNFVPTDVGPXAF (Ac-WVTH[Cit]LAGLLS[Cit]SGGVV[hArg]KNFVPTDVGP[1-Nal]AF-NH2) [SEQ ID NO 674] | 0.64
WVTHXLAGLLSXSGGVVXKNFVPTDVGPFAF (Ac-WVTH[Cit]LAGLLS[Cit]SGGVV[hArg]K(20 K PEGald)NFVPTDVGPFAF-NH2) [SEQ ID NO 153] | 1.78
[Cha]VTHRLAGLLSRSGGVVKNNFVPTDVGPFAF-NH2 [SEQ ID NO 704] | 0.2
[Phg]VTHRLAGLLSRSGGVVKNNFVPTDVGPFAF-NH2 (N-terminus assumed; SMILES CC(C)C[C@H](NC(=O)CNC(=O)[C@H](C)NC(=O)[C@H](CC(C)C)NC(=O)[C@H](CCCNC(=N)N)NC(=O)[C@H](Cc1c[nH]cn1)NC(=O)[C@@H](NC(=O)[C@@H](NC(=O)[C@@H](N)c1ccccc1)C(C)C)[C@@H](C)O)C(=O)N[C@@H](CC(C)C)C(=O)N[C@@H](CO)C(=O)N[C@@H](CCCNC(=N)N)C(=O)N[C@@H](CO)C(=O)NCC(=O)NCC(=O)N[C@H](C(=O)N[C@H](C(=O)N[C@@H](CCCCN)C(=O)N[C@@H](CC(N)=O)C(=O)N[C@@H](CC(N)=O)C(=O)N[C@@H](Cc1ccccc1)C(=O)N[C@H](C(=O)N1CCC[C@H]1C(=O)N[C@H](C(=O)N[C@@H](CC(=O)O)C(=O)N[C@H](C(=O)NCC(=O)N1CCC[C@H]1C(=O)N[C@@H](Cc1ccccc1)C(=O)N[C@@H](C)C(=O)N[C@@H](Cc1ccccc1)C(N)=O)C(C)C)[C@@H](C)O)C(C)C)C(C)C)C(C)C) [SEQ ID NO 703] | 0.19
VTHRLAGLLSRSGGVVKCNFVPTNVGSKAF (VTHRLAGLLSRSGGVVKC^(5 kDa MeO-PEG)NFVPTNVGSKAF-amide) [SEQ ID NO 693] | 17.5
Ac-VTHRLAGLLSRSGGVVRK(PEG 5 kDa)NFVPTDVGPFAF-NH2 [SEQ ID NO 229] | 0.06
Ac-WVTHRLAGLLSRSGGVVKCNFVPTDVGPFAF-NH2 (not fully specified (residue 19); printed as Ac-WVTHRLAGLLSRSGGVVKC^(20 kDa PEG)NFVPTDVGPFAF-amide) [SEQ ID NO 231] | 0.27
Ac-WVTHRLAGLLSRSGGVVCNNFVPTDVGPFAF-NH2 [SEQ ID NO 682] | 0.34
WVTHRLAGLLSRSGGVVKCNFVPTNVGSKAF (WVTHRLAGLLSRSGGVVKC^(5 kDa MeO-PEG)NFVPTNVGSKAF-amide) [SEQ ID NO 695] | 5.44
Ac-WVTHRLAGLLSRSGGVVCNNFVPTDVGPFAF-NH2 (not fully specified (residue 18); printed as Ac-WVTHRLAGLLSRSGGVVC^(20 kDa PEG)NNFVPTDVGPFAF-amide) [SEQ ID NO 683] | 1.58
Ac-WVTHRLAGLLSRSGGVVKNNFVPTDVGPFAF-NH2 [SEQ ID NO 684] | 0.08
Ac-WVTHRLAGLLSRSGGVVRCNFVPTDVGPFAF-NH2 [SEQ ID NO 680] | 0.58

Second part, the binder after the results:

Ki [nM] | Binder
20.8 | ASDTATCVTHRLAGLLSRSGGVVKNNFVPTNVGSKAF (ASDTATC(Acm)VTHRLAGLLSRSGGVVKNNFVPTNVGSKAF-NH2) [SEQ ID NO 707]
12.1 | ASDTATSVTHRLAGLLSRSGGVVKNNFVPTNVGSKAF-NH2 [SEQ ID NO 709]
0.27 | Ac-WVTHRLAGLLSRSGGVVKC(PEG 30 kDa)NFVPTDVGPFAF-NH2 [SEQ ID NO 232]
5.74 | C(MeO‑PEG 5 kDa)GGGGGGGWVTHRLAGLLSRSGGVVKNNFVPTDVGPFAF-NH2 [SEQ ID NO 697]
1.27 | WVTHXLAGLLSXSGGVVXKNFVPTDVGXFAF (Ac-WVTH[Cit]LAGLLS[Cit]SGGVV[hArg]K(20 KPEGald)NFVPTDVG[Oic]FAF-NH2) [SEQ ID NO 172]
2.61 | WVTHXLAGLLSXSGGVVRKNFVPTDVGPFAF (Ac-WVTH[Cit]LAGLLS[Cit]SGGVVRK(20 KPEGald)NFVPTDVGPFAF-NH2) [SEQ ID NO 158]
157 | VTHRLAGLLSRSGGVVC(MeO‑PEG 5 kDa)NNFVPTNVGSKAF-NH2 [SEQ ID NO 691]
0.95 | WVTHRLAGLLSRSGGVVKCNFVPTDVGPFAF-NH2 [SEQ ID NO 689]
0.17 | Ac-VTHRLAGLLSRSGGVVRK(20 kDa PEG)NFVPTDVGPFAF-NH2 [SEQ ID NO 230]
0.14 | [1Nal]VTHRLAGLLSRSGGVVKNNFVPTDVGPFAF-NH2 (N-terminus assumed; SMILES CC(C)C[C@H](NC(=O)CNC(=O)[C@H](C)NC(=O)[C@H](CC(C)C)NC(=O)[C@H](CCCNC(=N)N)NC(=O)[C@H](Cc1c[nH]cn1)NC(=O)[C@@H](NC(=O)[C@@H](NC(=O)[C@@H](N)Cc1cccc2ccccc12)C(C)C)[C@@H](C)O)C(=O)N[C@@H](CC(C)C)C(=O)N[C@@H](CO)C(=O)N[C@@H](CCCNC(=N)N)C(=O)N[C@@H](CO)C(=O)NCC(=O)NCC(=O)N[C@H](C(=O)N[C@H](C(=O)N[C@@H](CCCCN)C(=O)N[C@@H](CC(N)=O)C(=O)N[C@@H](CC(N)=O)C(=O)N[C@@H](Cc1ccccc1)C(=O)N[C@H](C(=O)N1CCC[C@H]1C(=O)N[C@H](C(=O)N[C@@H](CC(=O)O)C(=O)N[C@H](C(=O)NCC(=O)N1CCC[C@H]1C(=O)N[C@@H](Cc1ccccc1)C(=O)N[C@@H](C)C(=O)N[C@@H](Cc1ccccc1)C(N)=O)C(C)C)[C@@H](C)O)C(C)C)C(C)C)C(C)C) [SEQ ID NO 701]
31.8 | VTHRLAGLLSRSGGVVKCNFVPTNVGSKAF (VTHRLAGLLSRSGGVVKC^(5 kDa MeO-PEG)NFVPTNVGSKAF-amide) [SEQ ID NO 694]
0.6 | Ac-WVTHRLAGLLSRSGGVVRCNFVPTDVGPFAF-NH2 (not fully specified (residue 19); printed as Ac-WVTHRLAGLLSRSGGVVRC^(20 kDa PEG)NFVPTDVGPFAF-amide) [SEQ ID NO 681]
